Tests used:
[1] = Example 9: screening of rhamnosidase variants for derhamnosylation of saponins in crude bark extract; assay type: biochemical, Quillaja saponaria; details: 18 h, CBE 75% v/v, 100 mM Sodium acetate pH 5.8
Method: Libraries of genetic variants encoding mutations in the wild type Kribbella flavida rhamnosidase (SEQ ID No. 1017) were prepared using molecular biology techniques, enzymes were prepared linked to a C-terminally located His-tag. Single monoclonal colonies were grown in 400 ul of expression medium and protein expressed. Cell pellets were lysed in 200 ul of the relevant buffer (Table 17).
Lysate was diluted appropriately in the relevant buffer to allow a lysate loading of the indicated % loading (1% loading corresponds to use of 2 ul original lysate in a 200 ul reaction).
Crude bark extract (CBE) obtained by aqueous extraction of Quillaja saponaria and containing at least 2.80 mg/ml QS-21 (by HPLC-UV) was adjusted to pH 6 by dropwise addition of 2M NaOH with stirring. The relevant concentration of the relevant glucosidase was added. The appropriate relative volume of pH 6 CBE (160 ul (for 80%) or 150 ul (for 75%)) was added to each well of the reaction plate. The reaction plate was sealed and incubated at the relevant temperature and time.
The reaction plate was quenched by adding 200 uL of MeCN (2% AcOH, 1 mg/mL hexanophenone) to each well of the plates. The quenched reaction plate was re-sealed and incubated at 20 deg C. with shaking for 10 min. The reaction plate was then centrifuged (10 min, 4 degC).
200 uL was transferred from each well of the quenched plate to the corresponding wells of a fresh 96 well plate and sealed. The plate was analysed by UV HPLC with the method described in Example 4.
Three key peaks of interest are apparent using this chromatography: Left Peak (retention time approximately 2.30-2.35 min) comprising mainly QS-17 family components; Middle Peak (retention time approximately 2.37-2.42 min) comprising mainly QS-18 family components and desglucosyl-QS-17 family components; and Right Peak (retention time approximately 2.44-2.50 min) comprising mainly QS-21 family components. Peak identity was supported by MS/MS.
Enzyme activity is calculated as the % conversion of the Left Peak present in the crude bark extract: […]

[2] = Example 10: derhamnosylation of saponins in crude bark extract (50%) using WT and engineered rhamnosidases R1 to R5; assay type: biochemical, Quillaja saponaria; details: 7 h, 50% CBE, 35 degC; for % Right Peak: starting CBE 26; for % Left Peak: starting CBE 30; for % Middle Peak: starting CBE 44
Method: Lyophilised powders from clarified cell lysate expressing glucosidases (from Example 8 WT glucosidase and engineered glucosidase polypeptides G1 to G5) and rhamnosidases (from Example 9 WT rhamnosidase and engineered rhamnosidase polypeptides R1 to R5) were dissolved in 200 mM sodium acetate aqueous solution at pH 5.8 to prepare the enzyme solutions at 4 fold the final reaction concentration as shown in Tables 19 and 20.
Each rhamnosidase solution was combined with an equal volume of 200 mM sodium acetate aqueous solution at pH 5.8 and separately with an equal volume of 200 mM sodium acetate aqueous solution at pH 5.8 containing 2 mg/ml glucosidase G5. This is a sufficient loading of glucosidase to effect complete hydrolysis of the relevant glucose moiety within 4 hours.
CBE was adjusted to pH of 6.0 to 6.2 with 2M sodium hydroxide and an equal volume added to the enzyme solution to prepare the reaction mix (i.e. 50% CBE concentration in reaction mix) and the concentration of glucosidase and/or rhamnosidase is shown in Tables 19 and 20. The reaction mix was heated to 35 degC for the time indicated in Tables 19 and 20, after which the reaction was quenched by addition of an equal volume of MeCN containing 2% acetic acid and shaken at room temperature for 10 mins prior to centrifugation (10 min, 4 degC) to remove particulates. Samples were analysed by UV HPLC using method of Experiment 4-4.
The change in composition of the Left, Middle and Right peaks is shown in Tables 19 and 20. The composition changes by the action of the enzymes depending on the presence or absence of the partner enzyme. The extent of reaction is proportional to the enzyme concentration and the reaction time under these conditions. The tables show data for enzyme concentrations and the reaction times providing for equivalent extents of reaction. The improvement resulting from the mutations introduced for each variant is equal to the fold change in enzyme concentration×time (i.e. fold improvement=(enzyme concentration×time) for preceding variant÷(enzyme concentration×time) for later variant). A cumulative fold improvement over the original enzyme variant is calculated by the product of the individual fold improvements.

[3] = rhamnosidase 0.63 mg/ml + glucosidase G5 0.5 mg/ml
[4] = rhamnosidase 0.63 mg/ml, no glucosidase

B1: Variant R3: engineered rhamnosidase polypeptide, variant of Kribbella flavida rhamnosidase SEQ ID No. 1017 (protein)
chain: MSFPAAPARLRFEHRTDPGPVLGIGTATPRLSWQVPTAPDDYRQAGYEVEIARGDAAPEQYTVDSADQVLVPWPGTPLAARESATVRVRVRGDGDWSQWSDPATVEAGLLSADDWTARFVSPRENAGHEAPAPLIGGVIDLPPDIAQARLYATAHGIYEPTLNGTRVGDEQLAPGWTAYEQRLRYQTYDVTDLVAPGENRLELLVGNGWYRGRMGFHGGHSLYGDRLAVLAQLEVTTATGEVKVLASDGTWTTRETNVLADDLYDGQHVDLRRTLGEPGPVDVLDADLSLLVAPDGPPVRVTDVLPAKAVTTSPAGKTLVDFGQNVVGRLRLRVRGGAAGDEIVLRHAEVLEDGELCVRPLRTAKATDSFVLAGPDEVTLEPTLTFHGFRYAEITGVPDLRAEDVEAVVVGSDLRRTGWFESSHPLLDRFHENVVWGMRGNFLDVPTDCPQRDERLGWTGDIQVFSPTASFLFDTAGFLTNWLADLIAEQHKDGSVPFVVPDVLRQPGPATAAWGDAATIVPWVLYERTGDAGLLARQLPSMRAWVDRMAGLAGDDLLWVGGFQFGDWLDPTAPPDDPFRAKADPDVLATAHLARSAEVVALAAEVVGAGELAREYAELAARVRQAFAAEYTTGSGRVLSDAATNYALALQWALLPTEAQRKRAGERLADLVRTAGFRISTGFVGTPLMADALADSGHPDLAYRLLLETGCPSWLYAVTMDATTVWERWDSMLPDGSINPGQMTSFNHYALGAVADWMHRRVAGLAPGDPGYRRIVVDPLFTAHLTKASARHLTPYGEAAVAWSRSGGRVRLEVTVPVGARARVAVPGESAPVEVGHGTHEWTADDVYGETPPLPADATIRQLIDHEPSWTTLAAAATRTGIVADDAELAGRLERYLDHPATELVDAVSPRGFSPSAEALHAELDSVLGR
modifications: Seq ID No. 1017 with mutations A143P, L214M, K219G, Q921H, G357C
[1]; R3 round: 35 deg C, lysate 0.4% v/v
  % conversion (Right peak/Left Peak) (−neg control): 13.06%
[1]; R3 round: 35 deg C, lysate 0.4% v/v, estimate
  Cumulative FIOP from WT: 9.4
[1]; R3 round: 35 deg C, lysate 0.4% v/v, negative control 26.60
  Right Peak %: 29.45%
[1]; R3 round: 35 deg C, lysate 0.4% v/v, negative control 28.91
  Left Peak %: 18.85%
[1]; R3 round: 35 deg C, lysate 0.4% v/v, negative control 44.49
  Middle Peak %: 51.70%
[1]; R3 round: 35 deg C, lysate 0.4% v/v, negative control 47.91
  % conversion (Right peak/Left Peak): 60.97%
[1]; R3 round: 35 deg C, lysate 0.4% v/v, positive control R2
  FIOP (% area increase variant/pos control): 3.3
[1]; R4 round: 35 deg C, lysate 0.125% v/v
  % conversion (Right peak/Left Peak) (−neg control): 2.16%
[1]; R4 round: 35 deg C, lysate 0.125% v/v, negative control 26.09
  Right Peak %: 26.56%
[1]; R4 round: 35 deg C, lysate 0.125% v/v, negative control 29.62
  Left Peak %: 27.65%
[1]; R4 round: 35 deg C, lysate 0.125% v/v, negative control 44.29
  Middle Peak %: 45.79%
[1]; R4 round: 35 deg C, lysate 0.125% v/v, negative control 46.84
  % conversion (Right peak/Left Peak): 49.00%
[2]; [3]
  % change in Left Peak: −38%
  % change in Middle Peak: −99%
  % change in Right Peak: 311%
  Cumulative Fold improvement in primary enzyme loading × time: 8
  Fold improvement in primary enzyme loading × time: 2.0
  % Right Peak: 81%
  % Left Peak: 19%
  % Middle Peak: 0%
[2]; [4]
  % change in Left Peak: −45%
  % change in Middle Peak: 21%
  % change in Right Peak: 116%
  Cumulative Fold improvement in primary enzyme loading × time: 8
  Fold improvement in primary enzyme loading × time: 2.0
  % Right Peak: 30%
  % Left Peak: 16%
  % Middle Peak: 53%

From patent US20240026407A1, “MODIFICATION OF SAPONINS” (GLAXOSMITHKLINE BIOLOGICALS SA, priority 2020, published 2024)
